{"source": "paper PMC11067747", "molecular_target": "recombinant phytoplasmal effector causing phyllody 1 (PHYL1)", "test": "cross-linking; recombinant IMP and PHYL1 mixed at 30 µM each in 1x PBS, 15 min at 20°C, then 1 mM bis(sulfosuccinimidyl)suberate (BS3) for 60 min; SDS-PAGE and Western blot with anti-IMP and anti-PHYL1", "data": [{"substance": "recombinant immunodominant membrane protein (IMP) without the transmembrane domain, amino acids 33-172, from Crotalaria witches' broom phytoplasma (domain or fragment)", "values": [{"measurement": "stoichiometry N", "result": 1}]}]}
